Legend:
[1] = substrate: CC1CS(=O)(=O)CCN1/N=C/c1ccc([N+](=O)[O-])o1; test: purified protein; type: biochemical, Trypanosoma cruzi; settings: 100 μM NADH fixed
[2] = substrate: O=C(Cn1ccnc1[N+](=O)[O-])NCc1ccccc1; test: purified protein; type: biochemical, Trypanosoma cruzi; settings: 100 μM NADH fixed; benznidazole 10–100 μM

B1: TcNTR (61S, catalytic domain) (Trypanosoma cruzi strain CL Brener) (protein)
chain: LDAMKRVVHERRSCKRFDPTKSIDLDVVSDLLAMTVRAPTALNLQPWVAVVIHEEEQRETLSRAALGQPQPRDAPVTVVFAGDMEPESNAPAALEMGLESGYYHSLYGAAYLRHAYYLLHGGPCEVMSHVKAIVSAWYSESTGNAMLSVPRNKQAYAWKQVMIPATTFLYLATAAGFDTAILEGFDEAQVRRVAGLPPRFTVPVIISVGHGAKNGFHSVRSPRFPTKHLVRWGKF
- Km [1]: 15.5 ± 3.5 µM
- Km [2]: 28.0 ± 2.7 µM
